Reference: article PMC4908976 (Science signaling, 2016)

T1: Gβγ on affinity beads (Gβ with 3xHA-tagged Gγ) (S. cerevisiae, UniProt P18851 1-423; P18852 1-110)
T1 sequence (looked up) 1: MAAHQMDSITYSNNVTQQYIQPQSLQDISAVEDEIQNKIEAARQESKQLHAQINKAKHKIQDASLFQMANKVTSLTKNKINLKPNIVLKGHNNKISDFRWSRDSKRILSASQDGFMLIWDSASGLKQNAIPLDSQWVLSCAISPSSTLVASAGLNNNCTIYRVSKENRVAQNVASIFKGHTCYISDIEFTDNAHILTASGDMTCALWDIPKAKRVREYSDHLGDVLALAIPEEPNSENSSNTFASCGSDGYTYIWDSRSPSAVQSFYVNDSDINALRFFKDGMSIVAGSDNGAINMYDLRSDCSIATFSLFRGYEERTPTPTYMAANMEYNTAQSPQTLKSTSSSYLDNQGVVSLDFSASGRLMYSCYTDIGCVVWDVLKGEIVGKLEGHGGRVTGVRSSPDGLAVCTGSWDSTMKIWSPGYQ
T1 sequence (looked up) 2: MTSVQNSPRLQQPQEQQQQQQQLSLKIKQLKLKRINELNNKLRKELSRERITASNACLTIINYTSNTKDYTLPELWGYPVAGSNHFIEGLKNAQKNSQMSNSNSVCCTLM


Target: T1, Gβγ on affinity beads (Gβ with …)
Assay: affinity purification with mass spectrometry

| Gβ/Gβ^P− ratio (total MS intensity on Gβγ beads over that on Gβ^P−γ beads) | Binder |
| --- | --- |
| 2.25 | myc-tagged Yck1 (yeast casein kinase 1) (enzyme, S. cerevisiae, UniProt P23291 1-538, looked up) MSMPIASTTLAVNNLTNINGNANFNVQANKQLHHQAVDSPARSSMTATTAANSNSNSSRDDSTIVGLHYKIGKKIGEGSFGVLFEGTNMINGVPVAIKFEPRKTEAPQLRDEYKTYKILNGTPNIPYAYYFGQEGLHNILVIDLLGPSLEDLFDWCGRKFSVKTVVQVAVQMITLIEDLHAHDLIYRDIKPDNFLIGRPGQPDANNIHLIDFGMAKQYRDPKTKQHIPYREKKSLSGTARYMSINTHLGREQSRRDDMEALGHVFFYFLRGHLPWQGLKAPNNKQKYEKIGEKKRSTNVYDLAQGLPVQFGRYLEIVRSLSFEECPDYEGYRKLLLSVLDDLGETADGQYDWMKLNDGRGWDLNINKKPNLHGYGHPNPPNEKSRKHRNKQLQMQQLQMQQLQQQQQQQQYAQKTEADMRNSQYKPKLDPTSYEAYQHQTQQKYLQEQQKRQQQQKLQEQQLQEQQLQQQQQQQQQLRATGQPPSQPQAQTQSQQFGARYQPQQQPSAALRTPEQHPNDDNSSLAASHKGFFQKLGCC |
| 2.09 | endogenous Yck2 (untagged native protein) (enzyme, UniProt P23292 1-546, looked up) MSQVQSPLTATNSGLAVNNNTMNSQMPNRSNVRLVNGTLPPSLHVSSNLNHNTGNSSASYSGSQSRDDSTIVGLHYKIGKKIGEGSFGVLFEGTNMINGLPVAIKFEPRKTEAPQLKDEYRTYKILAGTPGIPQEYYFGQEGLHNILVIDLLGPSLEDLFDWCGRRFSVKTVVQVAVQMITLIEDLHAHDLIYRDIKPDNFLIGRPGQPDANKVHLIDFGMAKQYRDPKTKQHIPYREKKSLSGTARYMSINTHLGREQSRRDDMEAMGHVFFYFLRGQLPWQGLKAPNNKQKYEKIGEKKRLTNVYDLAQGLPIQFGRYLEIVRNLSFEETPDYEGYRMLLLSVLDDLGETADGQYDWMKLNGGRGWDLSINKKPNLHGYGHPNPPNEKSKRHRSKNHQYSSPDHHHHYNQQQQQQQAQAQAQAQAQAKVQQQQLQQAQAQQQANRYQLQPDDSHYDEEREASKLDPTSYEAYQQQTQQKYAQQQQKQMQQKSKQFANTGANGQTNKYPYNAQPTANDEQNAKNAAQDRNSNKSSKGFFSKLGCC |
